Assay results published in patent publication US20190031718A1.

Legend:
[1] = target: TAT-CaM (HIV; human); test: BLI, dissociation after moving sensors to buffer with 10 mM EDTA (1 µM sample)
[2] = target: TAT-CaM (HIV; human); test: BLI (Octet QK), biotinylated TAT-CaM on streptavidin sensors, cargo as analyte, global 1:1 association-then-dissociation fit
[3] = target: TAT-CaM (HIV; human); test: BLI, dissociation upon exposure to EDTA
[4] = target: CBS-myoglobin; test: BLI, dissociation in buffer with EDTA
[5] = target: CBS-myoglobin; test: BLI, sensor exposed to the highest analyte concentration, then dipped into buffer with EDTA
[6] = target: CBS-myoglobin; test: BLI, biotinylated CPP-adapter on streptavidin sensors, CBS-myoglobin as analyte (1 µM to 63 nM), one-state association-then-dissociation fit
[7] = target: troponin inhibitory peptide-myoglobin; test: BLI, sensor exposed to the highest analyte concentration, then dipped into buffer with EDTA
[8] = target: troponin inhibitory peptide-myoglobin; test: BLI, biotinylated TAT-troponin on streptavidin sensors, troponin inhibitory peptide-myoglobin as analyte (1 µM to 63 nM), one-state association-then-dissociation fit
[9] = target: TAT-CaM (HIV; human); test: BLI (Octet QK), biotinylated TAT-CaM on streptavidin sensors, eNOS as analyte, global 1:1 association-then-dissociation fit

Sequence of endothelial nitric oxide synthase (enzyme) (P29473 2-1205): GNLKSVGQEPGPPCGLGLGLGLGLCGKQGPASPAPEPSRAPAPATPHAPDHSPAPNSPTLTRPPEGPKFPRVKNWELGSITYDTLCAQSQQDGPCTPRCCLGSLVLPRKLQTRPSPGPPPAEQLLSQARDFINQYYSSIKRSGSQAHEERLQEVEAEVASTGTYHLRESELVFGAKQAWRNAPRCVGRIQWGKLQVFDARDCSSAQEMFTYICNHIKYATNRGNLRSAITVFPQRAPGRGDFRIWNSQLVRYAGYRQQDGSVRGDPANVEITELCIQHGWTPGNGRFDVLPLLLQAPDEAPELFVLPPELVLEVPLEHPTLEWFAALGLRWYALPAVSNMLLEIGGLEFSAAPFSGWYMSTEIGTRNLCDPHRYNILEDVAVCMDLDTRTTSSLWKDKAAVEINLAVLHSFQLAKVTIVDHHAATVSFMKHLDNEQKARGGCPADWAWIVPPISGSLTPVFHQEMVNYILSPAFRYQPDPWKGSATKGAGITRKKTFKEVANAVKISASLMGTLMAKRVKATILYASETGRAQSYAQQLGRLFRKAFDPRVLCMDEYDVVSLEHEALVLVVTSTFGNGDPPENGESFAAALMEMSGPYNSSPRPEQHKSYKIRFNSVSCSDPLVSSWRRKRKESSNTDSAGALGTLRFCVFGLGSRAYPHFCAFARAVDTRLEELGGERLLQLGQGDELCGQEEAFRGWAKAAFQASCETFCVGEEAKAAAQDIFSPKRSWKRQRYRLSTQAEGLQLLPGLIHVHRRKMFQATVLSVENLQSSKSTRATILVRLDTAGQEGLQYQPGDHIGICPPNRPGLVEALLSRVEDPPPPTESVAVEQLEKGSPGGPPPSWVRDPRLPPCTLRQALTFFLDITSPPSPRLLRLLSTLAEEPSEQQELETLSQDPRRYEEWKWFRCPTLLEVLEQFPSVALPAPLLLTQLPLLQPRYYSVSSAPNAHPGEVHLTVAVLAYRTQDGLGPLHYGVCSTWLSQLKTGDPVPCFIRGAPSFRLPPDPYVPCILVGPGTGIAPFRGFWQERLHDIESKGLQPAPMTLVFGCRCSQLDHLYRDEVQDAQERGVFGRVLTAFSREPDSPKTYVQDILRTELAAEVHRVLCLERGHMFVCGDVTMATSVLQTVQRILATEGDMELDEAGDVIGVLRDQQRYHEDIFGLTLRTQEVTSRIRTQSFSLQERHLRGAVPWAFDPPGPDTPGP
Sequence of CBS-HRP (P00433 31-338): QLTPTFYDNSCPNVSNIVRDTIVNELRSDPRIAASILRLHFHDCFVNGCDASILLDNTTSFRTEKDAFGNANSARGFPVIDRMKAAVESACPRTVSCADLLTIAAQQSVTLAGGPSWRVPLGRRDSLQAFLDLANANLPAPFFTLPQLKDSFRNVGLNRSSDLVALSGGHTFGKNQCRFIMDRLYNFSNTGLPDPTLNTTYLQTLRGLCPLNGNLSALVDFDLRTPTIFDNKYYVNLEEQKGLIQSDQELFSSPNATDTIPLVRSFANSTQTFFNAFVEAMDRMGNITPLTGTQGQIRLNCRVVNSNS

Substance	koff (EDTA) [1]	Kd [2]	koff [2]	kon [2]	koff (EDTA) [3]	koff (EDTA) [4]	koff (EDTA) [5]	kon [6]	also measured
CBS-β-Gal (enzyme)	0.05 s⁻¹	73 nM	0.00067 s⁻¹	9200 M⁻¹ s⁻¹	0.1 s⁻¹	–	–	–	–
CBS-HRP (from UniProt P00433 31-338) (enzyme)	0.2 s⁻¹	160 nM	0.00028 s⁻¹	1700 M⁻¹ s⁻¹	0.1 s⁻¹	–	–	–	–
SAP(E)-CaM	–	–	–	–	–	0.1 s⁻¹	0.2 s⁻¹	9400 M⁻¹ s⁻¹	Kd [6]: 13.3 nM; koff [6]: 0.00013 s⁻¹
TAT-troponin	–	–	–	–	–	–	–	–	koff (EDTA) [7]: 0.018 s⁻¹; kon [8]: 3700 M⁻¹ s⁻¹
endothelial nitric oxide synthase (enzyme)	–	–	–	–	–	–	–	–	Kd [9]: 15 nM; koff [9]: 0.00018 s⁻¹; kon [9]: 12000 M⁻¹ s⁻¹
TAT-calmodulin like protein 3 (from UniProt P27482 1-149)	–	–	–	–	–	0.1 s⁻¹	0.07 s⁻¹	6100 M⁻¹ s⁻¹	Kd [6]: 29.8 nM; koff [6]: 0.00018 s⁻¹
TAT-CaM 2.0 (from UniProt P0DP23 2-149)	–	–	–	–	–	0.1 s⁻¹	0.17 s⁻¹	4900 M⁻¹ s⁻¹	–
CBS-myoglobin	0.09 s⁻¹	0.9 nM	5.5e-05 s⁻¹	59000 M⁻¹ s⁻¹	0.1 s⁻¹	–	–	–	–
